{
  "source": "patent US7438916B2",
  "about": "“Therapeutic target for protozoal diseases” (priority 2005, dated 2008)",
  "molecules": {"B1": {"name": "FRAP2: truncated FRAP containing only amino acids 1-87, SEQ ID NO: 25 (protein, listed as Plasmodium falciparum)", "chain": "MKNRFYYNLIIKRLYTRSGGLRKPQKVTNDPESINRKVYWCFEHKPVKRTIINLIYSHNELKIFSNLLNHPTVGSSLIHELSLDGPY"}, "B2": {"name": "FRAP from rodent malaria parasite P. yoelii: P. yoelii FRAP ortholog, SEQ ID NO: 9 (protein, listed as Plasmodium yoelii)", "chain": "MKKKLYNLVLKRSYTRSGGLRKPQKVTNDPESINRKVYWCFEHKPVRRTVINLIFSHNELKNFSTLLRNTNASSSLIHELSLEGPYTGFLPSDEALNLLSTNSLNKLYKDDNKMSEFVLNHFTKGLWMYRDLYGSSYQPWLMYNEKREAPEKIQTLVNNDIIVKIEGEFKNCDHSIYLNEAKIIRPNMKCHNGIIHIIDKPIIF"}},
  "key": {"FRAP": {"biological_target": "T1, FRAP (Plasmodium falciparum, UniProt Q8IL04)", "T1 construct": "The activity requires the complete protein as two truncated variants of FRAP; made in house; host or cells: E. coli BL21", "T1 sequence (Q8IL04 whole entry, the tested form may be a part)": "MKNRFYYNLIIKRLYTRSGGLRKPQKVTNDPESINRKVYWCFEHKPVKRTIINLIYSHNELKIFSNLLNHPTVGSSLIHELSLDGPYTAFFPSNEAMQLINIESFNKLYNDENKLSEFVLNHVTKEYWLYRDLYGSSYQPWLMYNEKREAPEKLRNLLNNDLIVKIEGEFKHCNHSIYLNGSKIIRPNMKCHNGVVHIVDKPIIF", "experiment": "Inhibition of FRAP-mediated hemozoin formation", "format": "biochemical, P. falciparum", "settings": "different concentrations, FIG. 14", "protocol": "FIG. 14. Inhibition of FRAP-mediated hemozoin formation by Chloroquine. Hemozoin formation was investigated in the absence or presence of different concentrations of chloroquine, an antimalarial drug with high affinity for heme.\n(§1) The standard assay contained in a total volume of 1.0 ml: 500 mM sodium acetate pH 5.2, 300 nmol/ml hemin-Cl (as substrate) and 500 pmol/ml FRAP, as the source of heme polymerase activity. The amount of FRAP added was chosen such that 50% of the substrate was converted into product (insoluble hemozoin) during the assay. The reaction was initiated by protein addition and allowed to proceed for 16 hours at 37 degree. The reaction was terminated by adding 0.01 ml of 10% SDS solution. The reaction tube was centrifuged at 13,000 rpm for 15 minutes at 23 degrees and the supernatant was carefully removed. The pellet, which contained the polymerized and insoluble hemozoin, was resuspended in 1 ml of 0.1 M sodium bicarbonate pH 9.1 containing 2.5% SDS. […] The pellet obtained after final washing was dissolved in 0.3 ml of 0.1 N NaOH and the absorbance of the solution was measured at 405 nm using a spectrophotometer. Amount of heme polymerized was calculated utilizing a standard curve, prepared by dissolving known amounts of commercially available beta-hematin in 0.1 N NaOH. […]"}, "HepG2 cells [1]": {"test_system": "HepG2 cells", "experiment": "Liver cell binding inhibition assay with glycosaminoglycans", "format": "cell-based, human", "settings": "FIG. 6", "protocol": "Liver Cell binding assay: The binding of proteins was assayed on HepG2 cells as described previously (1, 31). Briefly, cells were plated at a density of 25,000 cells/well, in a 96 well plate, 36 hours before the start of the experiment. The cells were fixed with paraformaldehyde, blocked with 1% BSA, followed by the addition of equimolar concentrations of recombinant proteins. Bound protein was detected using anti-polyhistidine tag monoclonal antibody (1:10,000) and anti-mouse antibody conjugated to alkaline phosphatase (1:2000). Amount of bound protein was detected by using 4-methylumbelliferyl phosphate, a fluorescent substrate, and measurement of fluorescence using a fluorescent plate reader (Molecular Devices, CA) with excitation and emission set at 350 nm and 460 nm respectively. Results are shown as mean±standard deviation of mean of a representative experiment performed in triplicate. Binding inhibition assays were performed by combining the recombinant proteins with increasing amounts of glycosaminoglycans and incubating at 37° C. for 15 min. For enzyme treatment, cells were incubated with different concentrations of Heparinase I or Chondroitinase ABC for 90 minutes at 37° C. as previously described (31), before the addition of proteins. The bound protein was assayed as described above. […]"}, "[2]": {"test_system": "P. falciparum sporozoites", "experiment": "Sporozoite invasion assay", "format": "cell-based, P. falciparum (strain NF54)", "settings": "versus culture medium", "protocol": "Sporozoite Invasion Assay: Invasion assay was performed with HepG2 (Human hepatoma) cells as previously described (31). Briefly, HepG2 cells were plated (50,000 cells/0.3 ml) and incubated overnight at 37° C. in a CO2 incubator. Next day, medium was removed and 50 μl of diluted FRAP proteins (final concentrations: 20 and 10 μg/ml) or anti-FRAP2 antibodies (40 μg/ml final concentration) were added per well. Anti CS monoclonal antibody NFS1 was used at a final concentration of 100 μg/ml. All protein concentrations and serum dilutions were evaluated in triplicate. This was immediately followed by the addition of 20,000 sporozoites in 50 μl of medium to each well. P. falciparum (strain NF54) sporozoites were obtained from the salivary glands of An. stephensi mosquitoes as described by Ozaki (33). The sporozoites were allowed to invade liver cells for three hours followed by the washing of cells with PBS at pH 7.4. Subsequently, the cells were fixed with cold methanol. Sporozoites were visualized by immunostaining using NFS1 as primary antibody and anti-mouse IgG-peroxidase conjugate. The slides were mounted with Paramount and only intracellular sporozoites were counted as described (31). Percentage inhibition of invasion was calculated with the following formula: [(Control-test)/control]×100 Results"}, "HepG2 cells [3]": {"test_system": "HepG2 cells", "experiment": "Liver cell binding assay", "format": "cell-based, human", "settings": "FIG. 5", "protocol": "(§2) Liver Cell binding assay: The binding of proteins was assayed on HepG2 cells as described previously (1, 31). Briefly, cells were plated at a density of 25,000 cells/well, in a 96 well plate, 36 hours before the start of the experiment. The cells were fixed with paraformaldehyde, blocked with 1% BSA, followed by the addition of equimolar concentrations of recombinant proteins. Bound protein was detected using anti-polyhistidine tag monoclonal antibody (1:10,000) and anti-mouse antibody conjugated to alkaline phosphatase (1:2000). Amount of bound protein was detected by using 4-methylumbelliferyl phosphate, a fluorescent substrate, and measurement of fluorescence using a fluorescent plate reader (Molecular Devices, CA) with excitation and emission set at 350 nm and 460 nm respectively. Results are shown as mean±standard deviation of mean of a representative experiment performed in triplicate. Binding inhibition assays were performed by combining the recombinant proteins with increasing amounts of glycosaminoglycans and incubating at 37° C. for 15 min. For enzyme treatment, cells were incubated with different concentrations of Heparinase I or Chondroitinase ABC for 90 minutes at 37° C. as previously described (31), before the addition of proteins. The bound protein was assayed as described above.\nTherefore, binding activity was probed using a polyhistidine tag monoclonal antibody. […]"}, "HepG2 cells [4]": {"test_system": "HepG2 cells", "experiment": "Binding to liver cells pretreated with glycosaminoglycan cleaving enzyme", "format": "cell-based, human", "settings": "for Inhibition of Binding (%): 100 nM protein", "protocol": "as §2\nThe involvement of HSPG as a receptor was further verified by evaluating the binding of the protein on liver cells that were pretreated with specific glycosaminoglycan-cleaving enzymes. Cells were pre-treated with heparinase I or chondroitinase ABC followed by the evaluation of binding activity of FRAP and FRAP2. Heparinase I selectively removes heparan sulfate while chondroitinase ABC cleaves chondroitin sulfate A, B and C type sugars from the liver cell surface. Both, FRAP and FRAP2 lost 50% of their binding activity on heparinase I treated cells (Table 4) confirming the involvement of a heparin-based receptor on the liver cell surface."}, "heme": {"test_system": "heme", "experiment": "FRAP-mediated hemozoin formation assay", "format": "biochemical", "settings": "result in words", "protocol": "FIG. 8. FRAP-mediated neutralization of toxic heme into non-toxic Hemozoin. 500 pmoles of each of the protein was incubated with different concentrations of free heme at 37° C. for 16 hours, under acidic conditions (500 mM Sodium acetate pH 5.2). After 16 hours, free heme was removed by washing and the insoluble pellet representing hemozoin was solubalized in sodium hydroxide and estimated using a spectrophotometer.\nas §1, with “degree.” for “degree. The reaction was terminated by adding 0.01 ml of 10% SDS solution. The reaction tube was centrifuged at 13,000 rpm for 15 minutes at 23 degrees and the supernatant was carefully removed. The pellet, which contained the polymerized and insoluble hemozoin, was resuspended in 1 ml of 0.1 M sodium bicarbonate pH 9.1 containing 2.5% SDS.”\nFurthermore, the hemozoin formation was also evaluated with truncated variants and point mutants of FRAP to not only describe its structural requirements, but also pin point the residues that are involved in the polymerization process."}},
  "data": [
    {"molecule": "CCN(CC)CCCC(C)Nc1ccnc2cc(Cl)ccc12", "note": "(centres unmarked) [Chloroquine, chloroquine]", "values": [
      {"measurement": "inhibition of FRAP-mediated hemozoin formation", "setting": "FRAP", "result": "inhibited heme polymerization in a dose dependent manner"},
      {"measurement": "inhibition of FRAP-mediated hemozoin formation", "setting": "FRAP; listed as chloroquine", "result": "effectively inhibited"}
    ]},
    {"molecule": "chondroitin sulfate A [reference compound]", "values": [
      {"measurement": "inhibition of FRAP and FRAP2 binding to liver cells by the glycosaminoglycan", "setting": "HepG2 cells [1]; highest concentration evaluated", "result": "no inhibition"}
    ]},
    {"molecule": "B1", "values": [
      {"measurement": "% Inhibition of invasion of HepG2 cells by P. falciparum sporozoites", "setting": "[2]; 10 μg/ml", "result": "88.1 ± 4.6", "unit": "%"},
      {"measurement": "% Inhibition of invasion of HepG2 cells by P. falciparum sporozoites", "setting": "[2]; 20 μg/ml", "result": 92.4, "unit": "%"},
      {"measurement": "loss of binding activity in comparison to the full length protein", "setting": "HepG2 cells [3]", "result": 50, "unit": "%"},
      {"measurement": "binding on liver cells", "setting": "HepG2 cells [3]; five concentrations of recombinant protein", "result": "only half the strength"},
      {"measurement": "Inhibition of Binding (%)", "setting": "HepG2 cells [4]; cells pretreated with Heparinase I 1.25 U/ml for 90 minutes", "result": "42.3 ± 10.4", "unit": "%"},
      {"measurement": "Inhibition of Binding (%)", "setting": "HepG2 cells [4]; cells pretreated with Heparinase I 2.50 U/ml for 90 minutes", "result": "41.4 ± 1.5", "unit": "%"},
      {"measurement": "Inhibition of Binding (%)", "setting": "HepG2 cells [4]; cells pretreated with Heparinase I 5.00 U/ml for 90 minutes", "result": "49.4 ± 9.2", "unit": "%"},
      {"measurement": "loss of binding activity on heparinase I treated cells", "setting": "HepG2 cells [4]; text summary of Table 4", "result": 50, "unit": "%"},
      {"measurement": "reduction of binding activity in the presence of free heparin", "setting": "HepG2 cells [1]; HepG2 cells", "result": 60, "unit": "%"},
      {"measurement": "hemozoin formation (heme polymerization) activity", "setting": "heme", "result": "did not show any hemozoin formation"}
    ]},
    {"molecule": "B2", "values": [
      {"measurement": "hemozoin formation (heme polymerization) activity", "setting": "heme", "result": "demonstrated"}
    ]}
  ]
}
